This is an account of results in the supplement of paper PMC10567573.

The labels stand for the following.
B1: EPB41L3 (parent)
chain: SELGDYDPDECGSDYISEFRFAPN
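Also: lentivirally expressed fusions sorted by FACS into six bins by GFP to DsRed ratio, PSI derived from sequencing read proportions per bin multiplied by bin number.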

In the series the parent is B1. In words: protein stability index of a GFP-peptide fusion (GPS, HEK-293T) (PSI 1-6); higher = more stable. As to conditions: c terminus: a fixed tail appended.
Regarding SEDGDYDPDECGSDYISEFRFAPN [L3D], the protein stability index turned out to be 2.66. Then SEEGDYDPDECGSDYISEFRFAPN [L3E], with 1.88; and SESGDYDPDECGSDYISEFRFAPN [L3S], with 2.67. Then SEWGDYDPDECGSDYISEFRFAPN [L3W], with 1.91; and SERGDYDPDECGSDYISEFRFAPN [L3R], with 2.03. Then SECGDYDPDECGSDYISEFRFAPN [L3C], with 2.15; and SEIGDYDPDECGSDYISEFRFAPN [L3I], with 2.02; and SEGGDYDPDECGSDYISEFRFAPN [L3G], with 2.05. In the case of SEVGDYDPDECGSDYISEFRFAPN [L3V], the protein stability index stood at 2.33. Then SETGDYDPDECGSDYISEFRFAPN [L3T], with 2.2.

SEKGDYDPDECGSDYISEFRFAPN [L3K]: the protein stability index amounted to 1.74.

Take SENGDYDPDECGSDYISEFRFAPN [L3N]: the protein stability index stood at 2.22. Take SEHGDYDPDECGSDYISEFRFAPN [L3H]: the protein stability index came to 1.74.

With SEMGDYDPDECGSDYISEFRFAPN [L3M], the protein stability index turned out to be 2.02. Then SEAGDYDPDECGSDYISEFRFAPN [L3A], with 2.05; and SEFGDYDPDECGSDYISEFRFAPN [L3F], with 2.36; and SEPGDYDPDECGSDYISEFRFAPN [L3P], with 2.27. SEQGDYDPDECGSDYISEFRFAPN [L3Q]: the protein stability index amounted to 2.46. Take SELGDYDSDECGSDYISEFRFAPN [P8S]: the protein stability index worked out at 2.29. Then SELGDYDLDECGSDYISEFRFAPN [P8L], with 2.26.

Take SELGDYDADECGSDYISEFRFAPN [P8A]: the protein stability index is 2.44. Then SELGDYDNDECGSDYISEFRFAPN [P8N], with 2.19. Then SELGDYDTDECGSDYISEFRFAPN [P8T], with 1.92; and SELGDYDDDECGSDYISEFRFAPN [P8D], with 2.13. Then SELGDYDQDECGSDYISEFRFAPN [P8Q], with 2.03. In the case of SELGDYDVDECGSDYISEFRFAPN [P8V], the protein stability index came to 1.9. Then SELGDYDHDECGSDYISEFRFAPN [P8H], with 2.1. Then SELGDYDMDECGSDYISEFRFAPN [P8M], with 2.08; and SELGDYDFDECGSDYISEFRFAPN [P8F], with 2.37. With SELGDYDKDECGSDYISEFRFAPN [P8K], the protein stability index is 2.11. Then SELGDYDIDECGSDYISEFRFAPN [P8I], with 1.77; and SELGDYDWDECGSDYISEFRFAPN [P8W], with 1.76. Then SELGDYDRDECGSDYISEFRFAPN [P8R], with 2.1; and SELGDYDEDECGSDYISEFRFAPN [P8E], with 2.29. Regarding SELGDYDCDECGSDYISEFRFAPN [P8C], the protein stability index amounted to 1.51. Then SELGDYDYDECGSDYISEFRFAPN [P8Y], with 1.82. Then SELGDYDGDECGSDYISEFRFAPN [P8G], with 2.06. Then SELGDYDPYECGSDYISEFRFAPN [D9Y], with 1.99. For SELGDYDPVECGSDYISEFRFAPN [D9V], the protein stability index came to 1.87. Take SELGDYDPSECGSDYISEFRFAPN [D9S]: the protein stability index was 2.01. Then SELGDYDPWECGSDYISEFRFAPN [D9W], with 1.63. Then SELGDYDPIECGSDYISEFRFAPN [D9I], with 1.32; and SELGDYDPHECGSDYISEFRFAPN [D9H], with 1.92; and SELGDYDPGECGSDYISEFRFAPN [D9G], with 2.03. Then SELGDYDPTECGSDYISEFRFAPN [D9T], with 1.47. For the variant SELGDYDPAECGSDYISEFRFAPN [D9A], the protein stability index was 1.93. Then SELGDYDPRECGSDYISEFRFAPN [D9R], with 2.12. For SELGDYDPEECGSDYISEFRFAPN [D9E], the protein stability index is 2.4. Then SELGDYDPKECGSDYISEFRFAPN [D9K], with 2.05.

In the case of SELGDYDPNECGSDYISEFRFAPN [D9N], the protein stability index was determined as 1.55.

Regarding SELGDYDPCECGSDYISEFRFAPN [D9C], the protein stability index is 1.92.

Consider SELGDYDPMECGSDYISEFRFAPN [D9M], for which the protein stability index was 2.01. Then SELGDYDPPECGSDYISEFRFAPN [D9P], with 1.41.

For the variant SELGDYDPFECGSDYISEFRFAPN [D9F], the protein stability index was determined as 1.95. Then SELGDYDPQECGSDYISEFRFAPN [D9Q], with 2.25; and SELGDYDPLECGSDYISEFRFAPN [D9L], with 1.84; and SELGDYGPDECGSDYISEFRFAPN [D7G], with 2.29.

As for SELGDYSPDECGSDYISEFRFAPN [D7S], the protein stability index came to 1.47.

As to SELGDYYPDECGSDYISEFRFAPN [D7Y], the protein stability index was 1.7.

As to SELGDYFPDECGSDYISEFRFAPN [D7F], the protein stability index was 2.29.

Consider SELGDYMPDECGSDYISEFRFAPN [D7M], for which the protein stability index was found to be 1.93. Then SELGDYVPDECGSDYISEFRFAPN [D7V], with 1.61; and SELGDYIPDECGSDYISEFRFAPN [D7I], with 1.65. As for SELGDYCPDECGSDYISEFRFAPN [D7C], the protein stability index stood at 1.71. Then SELGDYAPDECGSDYISEFRFAPN [D7A], with 1.91; and SELGDYEPDECGSDYISEFRFAPN [D7E], with 3.01; and SELGDYKPDECGSDYISEFRFAPN [D7K], with 1.14.

For SELGDYQPDECGSDYISEFRFAPN [D7Q], the protein stability index was 1.37.

As to SELGDYRPDECGSDYISEFRFAPN [D7R], the protein stability index is 2.44. Then SELGDYHPDECGSDYISEFRFAPN [D7H], with 2.14; and SELGDYLPDECGSDYISEFRFAPN [D7L], with 1.56; and SELGDYNPDECGSDYISEFRFAPN [D7N], with 1.68. Consider SELGDYWPDECGSDYISEFRFAPN [D7W], for which the protein stability index came out at 2.1.

Regarding SELGDYPPDECGSDYISEFRFAPN [D7P], the protein stability index was found to be 2.31. Then SELGDYTPDECGSDYISEFRFAPN [D7T], with 1.57; and KELGDYDPDECGSDYISEFRFAPN [S1K], with 2.35; and WELGDYDPDECGSDYISEFRFAPN [S1W], with 1.53. Take AELGDYDPDECGSDYISEFRFAPN [S1A]: the protein stability index worked out at 1.81.

Turning to IELGDYDPDECGSDYISEFRFAPN [S1I], the protein stability index was 1.71.

As for HELGDYDPDECGSDYISEFRFAPN [S1H], the protein stability index came to 1.67. Then TELGDYDPDECGSDYISEFRFAPN [S1T], with 2.5; and VELGDYDPDECGSDYISEFRFAPN [S1V], with 2.25; and MELGDYDPDECGSDYISEFRFAPN [S1M], with 2.8. As to QELGDYDPDECGSDYISEFRFAPN [S1Q], the protein stability index came to 2.87.

As for CELGDYDPDECGSDYISEFRFAPN [S1C], the protein stability index came to 1.88. Then DELGDYDPDECGSDYISEFRFAPN [S1D], with 2.43; and GELGDYDPDECGSDYISEFRFAPN [S1G], with 1.99. Then YELGDYDPDECGSDYISEFRFAPN [S1Y], with 3.03; and LELGDYDPDECGSDYISEFRFAPN [S1L], with 2.02. Then FELGDYDPDECGSDYISEFRFAPN [S1F], with 1.86. Regarding RELGDYDPDECGSDYISEFRFAPN [S1R], the protein stability index amounted to 1.85.

With PELGDYDPDECGSDYISEFRFAPN [S1P], the protein stability index amounted to 1.89.

As for NELGDYDPDECGSDYISEFRFAPN [S1N], the protein stability index was 1.81.

For EELGDYDPDECGSDYISEFRFAPN [S1E], the protein stability index turned out to be 2.29.
